What was measured:
[1] = target: T1, extracellular domain of mouse IL12RB1 (mIL12Rb1 ECD) (mouse, UniProt Q60837 20-565); experiment: periplasmic extract ELISA (PE-ELISA) of phage clones, colorimetric
T1 construct: The immunogen was a fusion of the ECD with the human IgG1 hinge and Fc; also called mIL12Rb1 ECD antigen
T1 sequence: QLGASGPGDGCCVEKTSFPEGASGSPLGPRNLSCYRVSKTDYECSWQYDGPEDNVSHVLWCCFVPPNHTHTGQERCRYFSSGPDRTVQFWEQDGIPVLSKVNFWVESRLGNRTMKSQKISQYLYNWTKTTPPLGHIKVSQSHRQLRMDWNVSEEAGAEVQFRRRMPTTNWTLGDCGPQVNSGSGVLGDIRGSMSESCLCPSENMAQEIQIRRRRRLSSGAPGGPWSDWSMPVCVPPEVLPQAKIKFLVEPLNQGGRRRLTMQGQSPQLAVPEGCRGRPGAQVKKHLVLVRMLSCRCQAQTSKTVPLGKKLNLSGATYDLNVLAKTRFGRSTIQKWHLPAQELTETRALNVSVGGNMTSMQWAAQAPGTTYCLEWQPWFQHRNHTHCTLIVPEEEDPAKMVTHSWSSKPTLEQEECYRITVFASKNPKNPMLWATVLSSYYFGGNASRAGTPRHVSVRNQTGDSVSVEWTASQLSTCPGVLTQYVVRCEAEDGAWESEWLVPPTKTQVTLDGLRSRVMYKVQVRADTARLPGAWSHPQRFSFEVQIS
How it was run: (§1)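 After multiple rounds of biopanning on the human or mouse extracellular domain, individual phage clones were screened for selective binding by colorimetric periplasmic extract ELISA in 96-well plates. The library was built from camels given human and then mouse receptor extracellular domain–human IgG1 hinge–Fc fusion proteins. Their blood RNA was transcribed, and the roughly 400 bp VHH fragment was placed in frame with a his-tag in a phagemid in E. coli.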

[2] = target: T2, extracellular domain of human IL12RB1 (hIL12Rb1 ECD) (human, UniProt P42701 24-545); experiment: as above
T2 construct: The immunogen was a fusion of the ECD with the human IgG1 hinge and Fc; also called IL12Rβ1; CD212
How it was run: as §1

| Binder | binding result [1] | binding result [2] |
| --- | --- | --- |
| mIL12Rb1_VHH3 (VHH, Phagemid clone with his-tag, periplasmic extract) VHH: QVQLQESGGGSVQAGGSLRLSCVASGYSYCGYDMMWYRQAPGKEREFVALITSDYSIRYEDSVEGRFSISRDNAKNTGYLLMSNLTPADTAIYYCKTSTAARESSWCRSRYRVASWGQGTQVTVSS | binds |  |
| hIL12Rb1_VHH8 (VHH, Phagemid clone with his-tag, periplasmic extract) VHH: QVQLQESGGGSVQAGGSLRLSCVASGYSYCGYDMMWYRQAPGKEREFVALITSDYSIRYEDSVEGRFSISRDNAKNTGYLLMSNLTPADTAIYYCKTSTAARESSWCRSRYRVASWGQGTQVTVSS |  | binds |
| hIL12Rb1_VHH3 (VHH, Phagemid clone with his-tag, periplasmic extract) VHH: QVQLQESGGGSVQAGGSLRLSCVASGYSYCGYDMMWYRQAPGKEREFVALITSDYSIRYEDSVEGRFSISRDNAKNTGYLLMSNLTPADTAIYYCKTSTAARESSWCRSRYRVASWGQGTQVTVSS |  | binds |
| hIL12Rb1_VHH9 (VHH, Phagemid clone with his-tag, periplasmic extract) VHH: QVQLQESGGGSVQAGGSLRLSCVASGYSYCGYDMMWYRQAPGKEREFVALITSDYSIRYEDSVEGRFSISRDNAKNTGYLLMSNLTPADTAIYYCKTSTAARESGWCRSRYRVASWGQGTQVTVSS |  | binds |
| mIL12Rb1_VHH13 (VHH, Phagemid clone with his-tag, periplasmic extract) VHH: QVQLQESGGGSVQAGGSLRLSCVASGYSYCGYDMMWYRQAPGKEREFVALITSDYSIRYEDSVEGRFSISRDNAKNTGYLLMSNLTPADTAIYYCKTSTAARESGWCRSRYRVASWGQGTQVTVSS | binds |  |
| hIL12Rb1_VHH22 (VHH, Phagemid clone with his-tag, periplasmic extract) VHH: QVQLQESGGGSVQAGGSLRLSCTASGYTYSSAFMAWFRQAPGKEREGVAAIYTRDGGTVYADSVKGRFTISQDNAKNTLYLQMNSLKAEDTAMYYCAAKIPQPGRASLLDSQTYDYWGQGTQVTVSS |  | binds |
| mIL12Rb1_VHH1 (VHH, Phagemid clone with his-tag, periplasmic extract) VHH: QVQLQESGGGSVQAGGSLRLSCTASGYTYSSAFMAWFRQAPGKEREGVAAIYTRDGGTVYADSVKGRFTISQDNAKNTLYLQMNSLKAEDTAMYYCAAKIPQPGRASLLDSQTYDYWGQGTQVTVSS | binds |  |
| hIL12Rb1_VHH2 (VHH, Phagemid clone with his-tag, periplasmic extract) VHH: QVQLQESGGGSVQAGGSLRLSCTASGYTYSSAFMAWFRQAPGKEREGVAAIYTRDGGTVYADSVKGRFTISQDNAKNILYLQMNSLKAEDTAMYYCAAKIPQPGRASLLDSQTYDYWGQGTQVTVSS |  | binds |
| hIL12Rb1_VHH21 (VHH, Phagemid clone with his-tag, periplasmic extract) VHH: QVQLQESGGGSVQAGGSLRLSCTASGYTYSSAFMAWFRQAPGKEREGVAAMYTRDGGTVYADSVKGRFTISQDNAKNTLYLQMNSLKTEDTAMYYCAAKIPQPGRASLLDSQTYDYWGQGTQVTVSS |  | binds |
| hIL12Rb1_VHH20 (VHH, Phagemid clone with his-tag, periplasmic extract) VHH: QVQLQESGGGSVQAGGSLRLSCTASGYTYSSAFMAWFRQAPGKEREGVAAIYTRDGSPVYADSLKGRFTISQDNAKNTLHLQMNSLKPEDTAMYYCAAKIPEPGRISLLDSQTYDYWGHGTQVTVSS |  | binds |
| hIL12Rb1_VHH12 (VHH, Phagemid clone with his-tag, periplasmic extract) VHH: QVQLQESGGGSVQAGGSLRLSCTASGYTYSSAFMAWFRQAPGKEREGVAAIYTRDGGTVYADSVKGRFTISQDNAKNTLYLQMNSLKPEDTAMYYCAAKMPQPGRASLLDSQTYDYWGQGTQVTVSS |  | binds |
| mIL12Rb1_VHH18 (VHH, Phagemid clone with his-tag, periplasmic extract) VHH: QVQLQESGGGSVQAGGSLRLSCTASGYTYSSAFMAWFRQAPGKEREGVAAMYTRDGGTVYADSVKGRFTISQDNAKNTLYLQMNSLKTEDTAMYYCAAKIPQPGRASLLDSQTYDYWGQGTQVTVSS | binds |  |
| hIL12Rb1_VHH16 (VHH, Phagemid clone with his-tag, periplasmic extract) VHH: QVQLQESGGGSVQAGGSLRLSCTASGYTYSSAFMAWFRQAPGKEREGVAAMYTRDGGTVYADSVKGRFTISQDNAKNTLYLQIHTLKAEDTAMYYCAAKIPQPGRASLLDSQTYDYWGQGTQVTVSS |  | binds |
| mIL12Rb1_VHH6 (VHH, Phagemid clone with his-tag, periplasmic extract) VHH: QVQLQESGGGSVQAGGSLRLSCTASGYTYSSAFMAWFRQAPGKEREGVAAIYTRDGSPVYADSLKGRFTISQDNAKNTLHLQMNSLKPEDTAMYYCAAKIPEPGRISLLDSQTYDYWGHGTQVTVSS | binds |  |
| mIL12Rb1_VHH23 (VHH, Phagemid clone with his-tag, periplasmic extract) VHH: QVQLQESGGGSVQAGGSLRLSCTASGYTYSSAFMAWFRQAPGKEREGVAAIYTRDGGTVYADSVKGRFTISQDNAKNTLYLQMNSLKPEDTAMYYCAAKMPQPGRASLLDSQTYDYWGQGTQVTVSS | binds |  |
| mIL12Rb1_VHH22 (VHH, Phagemid clone with his-tag, periplasmic extract) VHH: QVQLQESGGGSVQAGGSLRLSCTASGYTYSSAFMAWFRQAPGKEREGVAAIYTRDGGTVYADSVKGRFTISQDNAKNILYLQMNSLKAEDTAMYYCAAKIPQPGRASLLDSQTYDYWGQGTQVTVSS | binds |  |
| mIL12Rb1_VHH17 (VHH, Phagemid clone with his-tag, periplasmic extract) VHH: QVQLQESGGGSVQAGGSLRLSCTASGYTYSSAFMAWFRQAPGKEREGVAAMYTRDGGTVYADSVKGRFTISQDNAKNTLYLQIHTLKAEDTAMYYCAAKIPQPGRASLLDSQTYDYWGQGTQVTVSS | binds |  |
| hIL12Rb1_VHH11 (VHH, Phagemid clone with his-tag, periplasmic extract) VHH: QVQLQESGGGSVQAGGSLRLSCAVSGYDYCGYDVRWYRQAPGKEREFVSGIDSDGSTSYADSVKGRFTISQDNAENTSYLHMFSLKPEDTAMYYCKTESPAGESAWCRNFRGMDYWGKGTQVTVSS |  | binds |
| mIL12Rb1_VHH2 (VHH, Phagemid clone with his-tag, periplasmic extract) VHH: QVQLQESGGGSVQAGGSLRLSCAVSGYDYCGYDVRWYRQAPGKEREFVSGIDSDGSTSYADSVKGRFTISQDNAENTSYLHMFSLKPEDTAMYYCKTESPAGESAWCRNFRGMDYWGKGTQVTVSS | binds |  |
| mIL12Rb1_VHH7 (VHH, Phagemid clone with his-tag, periplasmic extract) VHH: QVQLQESGGGSVQAGGSLRLSCAVSGYDYCGYDVRWYRRAPGKEREFVSGIDSDGSTSYADSVKGRFTISQDNAENTSYLHMFSLKPEDTAMYYCKTESPAGESAWCRNFRGMDYWGKGTQVTVSS | binds |  |
| mIL12Rb1_VHH21 (VHH, Phagemid clone with his-tag, periplasmic extract) VHH: QVQLQESGGGSVQAGGSLRLSCAVSGYDYCGYDVRWYRRAPGKEREFVSGIDSDGSTSYADSVKGRFTISQDNAENTSYLHMFSLKPEDTAMYYCKTESPAGESAWCRNFRGMDYWGKGTQVTVSS | binds |  |
| mIL12Rb1_VHH16 (VHH, Phagemid clone with his-tag, periplasmic extract) VHH: QVQLQESGGGSVQAGGSLRLSCAVSGYDYCGYDVRWYRQAPGKEREFVSGINSDGSTSYADSVKGRFTISQDNAENTSYLHMFSLKPEDTAMYYCKTEGPAGESAWCRNFRGMDYWGKGTQVTVSS | binds |  |
| hIL12Rb1_VHH6 (VHH, Phagemid clone with his-tag, periplasmic extract) VHH: QVQLQESGGGSVQAGGSLRLSCAASRYTYTNNFMAWFRQAPGKEREGVAAIYTGDGYAYYFYSVKGRFTISQDNDENMLYLQMNSLKPEDTAMYYCAAMERRIGTRRMTENAEYKYWGQGTQVTVSS |  | binds |
| hIL12Rb1_VHH18 (VHH, Phagemid clone with his-tag, periplasmic extract) VHH: QVQLQESGGGSVQAGGSLRLSCAASRYTYTNNFMAWFRQAPGKEREGVAAIYTGDGYAYYFDSVKGRFTISQDNDKNMLYLQMNSLKPEDTAMYYCAAMERRSGRRRMTENAEYKYWGQGTQVTVSS |  | binds |
| hIL12Rb1_VHH17 (VHH, Phagemid clone with his-tag, periplasmic extract) VHH: QVQLQESGGGSVQAGGFLRLSCVASGYGYCGYDMSWYRQVPGKEREFVALITSDRSVSYEDSVKGRFSISRDNAKNTAYLEMNRLTPDDTAIYYCKTSTAARENNWCRSRYRIASWGQGTQVTVSS |  | binds |
| hIL12Rb1_VHH5 (VHH, Phagemid clone with his-tag, periplasmic extract) VHH: QVQLQESGGGSVQAGGFLRLSCVASGYGYCGYDMSWYRQVPGKEREFVALITSDRSVSYEDSVKGRFSISRDNAKNTAYLEMNRLTPDDTAVYYCKTSTAARENNWCRSRYRIAYWGQGTQVTVSS |  | binds |
| hIL12Rb1_VHH13 (VHH, Phagemid clone with his-tag, periplasmic extract) VHH: QVQLQESGGGSVQAGGFLRLSCVASGYGYCGYDMSWYRQAPGKEREFVALITSERVISYEDSVKGRFSISRDNAENTGYLEMNRLTPDDTAIYYCKTSAAARESSWCRSRYRVASWGQGTQVTVSS |  | binds |
| hIL12Rb1_VHH4 (VHH, Phagemid clone with his-tag, periplasmic extract) VHH: QVQLQESGGGSVQAGGSLRLSCVASGYGYCGYDMSWYRQTPGKEREFVALITSDRIASYEDSVKGRFIISRDNAKNTGYLDMTRVTPDDTAIYYCKTSAAARENSWCRSRYRVASWGQGTQVTVSS |  | binds |

From patent US20230279126A1 (published 2023)
